Positions of bridges follow the written chain, without caps; N, C: chain ends. Non-standard residues stand in square brackets, D forms with d. Residues, ends and D or L forms follow the SMILES beside them. *: point of attachment. X1 = CCN(CC)c1ccc2c(-c3ccc(S(=O)(=O)*)cc3S(=O)(=O)[O-])c3ccc(=[N+](CC)CC)cc-3oc2c1; Biotin = O=C1N[C@H]2[C@H](CS[C@H]2CCCCC(=O)*)N1; Dopa = N[C@@H](Cc1ccc(O)c(O)c1)C(=O)O; Dap = NC[C@H](N)C(=O)O
Columns and labels:
[1] = Transport across the BBB, in vitro bovine cell assay (co-culture, transwell); settings: pH 7.4; for Papp at 2 h: bovine
Source text: (§1) The evaluation method chosen to test the compounds of formula (I) and (II) of the invention was a cell-based assay consisting of a co-culture of brain endothelial cells and astrocytes, which allows to evaluate or to predict the transport of compounds through the BBB. The co-culture method used was described by Gaillard and de Boer in 2008 (Gaillard, PJ et al. "2B-Trans technology: targeted drug delivery across the blood-brain barrier" Methods Mol Biol 2008, vol. 437 pp. 161-175) and consists in seeding of rat astrocytes in a side of a polycarbonate filter (transwell) and bovine brain endothelial cells on the other side of the filter. Under these conditions endothelial cells are able to reach the confluence mimicking the BBB. […] Is commonly used model for permeation studies and toxicity of compounds across the BBB.
(§2) The co-culture assay was used to determine the capacity of the constructs cargo-shuttle to cross the BBB. The apparent permeability of the compounds was measured in triplicate at a concentration of 200 µ M for Examples 1, 2, 3, 5, 10, 13, 15, 16, 17 and 19 and at a concentration of 1.75 µM for Example 21. All the assays were performed with transendothelial electrical resistance values equal or higher than 100 Ω · cm^2 and were carried out in the presence of lucifer yellow to assess the integrity of the cell membrane during the test. The permeability tests were performed in Ringer-HEPES buffer at pH 7.4. The compound of interest was dissolved in the buffer to the desired concentration.
(§3) Once the endothelial cells were confluent on the filters (transwells) these were washed with Ringer-HEPES buffer. The acceptor well was filled with 800 µ L of Ringer-HEPES buffer and the donor well with 200 µL of the solution of the compound to be studied. The system was incubated at 37 °C and 5% CO2 for 2 h. After that time the content of the acceptor and donor compartments were analyzed by HPLC-UV, direct ELISA or fluorescence (depending on cargo anchored to the shuttle). […] The apparent permeability was calculated using the following equation: Papp = (dQ/dt) * (1/A) * (1/CO) (cm/s), where (dQ/dt) is the amount of compound present in the compartment acceptor function of time (nmol/s). A is the area of the filter(cm2) and CO is the initial concentration of the compound applied in the donor compartment (nmol/mL).

[2] = tested on: bovine brain endothelial cells; assay: as above; settings: bovine cell model; for Transport (%) (2h) / Papp (x 10^6) cm/s: 37 °C, Ringer-HEPES pH 7.4, 200 µM (Example 21: 1.75 µM), 2 h; for Papp (x 10^6) cm/s: triplicate; for detection of the cargo alone in the acceptor compartments by MALDI-TOF MS: after the 2 h assay, cargo without shuttle
Source text: as §1, §2, §3

[3] = Stability of the shuttles in human serum; type: in vitro ADME; settings: HBSS, 37 °C, 90% human serum
Protocol: Regarding to the stability study in human serum of the BBB-shuttle (examples 1, 2, 3 and 5), the peptides were incubated at a concentration of 400 µM in buffer HBSS at 37 °C in the presence of 90% human serum. At a range of times, 100 µL aliquots were collected to which methanol was added in order to precipitate the serum proteins. Samples were centrifuged, filtered and analyzed by HPLC-UV and MALDI-TOF MS to determine the degree of degradation of the BBB-shuttle. […] The half life of the derivative bearing a single disulfide bond was 3 h (examples 2), whereas that of the linear version was no more than 8 min.

[4] = tested on: human endothelial cells derived from hematopoietic stem cells; assay: Transport across the BBB, in vitro human cell assay (co-culture, transwell); type: in vitro ADME; settings: human cell model, 37 °C, 25 nM Examples 22 and 23, 30 nM Example 24, 5 nM Example 25; for Transport (%) (2h): Ringer-HEPES pH 7.4, 200 µM peptides
Protocol: (§4) Due to the great interest to know whether the cargo-BBB shuttle conjugates would be transported across human brain endothelial cells, some of the most relevant cargoes for therapy and diagnosis were assayed in a novel human-based BBB cell model. In this case, the co-culture method used was described by Cecchelli et al. (Cecchelli et al. PloS One. 2014. vol9. pp. e99733) and consists in seeding bovine pericytes in the bottom of a 12-well plate and human endothelial cells derived from hematopoietic stem cells on a transwell filter.
(§5) The compound of interest was disolved or buffer-exhanged and diluted to the desired concentration.
(§6) Cetuximab and cetuximab conjugates were radiolabelled to be assayed in the cell model. Pierce^(R) iodination beads were used following the instructions provided by the manufacturer.
(§7) The apparent permeability was calculated using the same equation as for the bovine cell model.

[5] = as above; type: in vitro ADME; settings: human cell model, 37 °C, Ringer-HEPES pH 7.4, 200 µM peptides, 25 nM Examples 22 and 23, 30 nM Example 24, 5 nM Example 25, read-out: Papp (x 10^6)
Protocol: as §4, §5, §6, §7

CCN(CC)c1ccc2c(-c3ccc(S(=O)(=O)NCC(=O)N[C@H]4CSSC[C@@H]5NC(=O)[C@H](CC(C)C)NC(=O)[C@H](C)NC(=O)[C@H]([C@@H](C)O)NC(=O)[C@H](CCC(=O)O)NC(=O)[C@@H]6CCCN6C(=O)[C@H](C)NC(=O)[C@H](CCCCN)NC(=O)[C@H](CSSC[C@@H](C(=O)N[C@@H](Cc6c[nH]cn6)C(N)=O)NC(=O)[C@H](C)NC(=O)[C@H](C)NC(=O)[C@H](C)NC5=O)NC(=O)[C@H](CC(N)=O)NC4=O)cc3S(=O)(=O)[O-])c3ccc(=[N+](CC)CC)cc-3oc2c1 [Example 13, sulforhodamine b-Gly-Cys-Asn-Cys-Lys-Ala-Pro-Glu-Thr-Ala-Leu-Cys-Ala-Ala-Ala-Cys-His-NH2] (X1-GCNCKAPETALCAAACH-NH2; disulfide 2-12, 4-16)
Papp [1]: 2 ± 0.3 ×10⁻⁶ cm/s
Transport (%) (2h) [2]: 2.4±0.4%

5(6)-Carboxyfluorescein-Cys-Asn-Cys-Lys-Ala-Pro-Glu-Thr-Ala-Leu-Cys-Ala-Ala-Ala-Cys-His-NH2 ({5(6)‑carboxyfluorescein}-CNCKAPETALCAAACH-NH2; disulfide 1-11, 3-15) [Example 10]
Transport (%) (2h) [2]: 3.7±1.8%
Papp (x 10^6) cm/s [2]: 3.1±1.5 (x 10^6) cm/s

Biotin-CNCKAPETALCAAACH-NH2 (cysteine pairing not given here) [Example 15]
Transport (%) (2h) [2]: 1.9±0.8%

CC(C)C[C@@H]1NC(=O)[C@H](C)NC(=O)[C@H]([C@@H](C)O)NC(=O)[C@H](CCC(=O)O)NC(=O)[C@@H]2CCCN2C(=O)[C@H](C)NC(=O)[C@H](CCCCN)NC(=O)[C@@H](N)CNC(=O)C[C@@H](C(N)=O)NC1=O [Example 3, H-Dap-Lys-Ala-Pro-Glu-Thr-Ala-Leu-Asp-NH2] (H-[Dap]KAPETALD-NH2; lactam 1-9)
Papp at 2 h [1]: 5.1 ± 0.6 ×10⁻⁶ cm/s
Transport (%) (2h) [2]: 6.0±0.7%
degradation in human serum ([3]; 400 µM, 24 h): No degradation
Transport (%) (2h) [4]: 10.9±1.1%

H-Cys-Lys-Ala-Pro-Glu-Thr-Ala-Leu-Cys-NH2 (H-CKAPETALC-NH2; cysteine pairing not given here) [Example 2]
Transport (%) (2h) [2]: 3.1±1.0%
half life in human serum ([3]; 400 µM): 3 h

H-Cys-Lys-Ala-Pro-Glu-Thr-Ala-Leu-Cys-NH2 (H-CKAPETALC-NH2; cysteine pairing not given here) [Example 4]
Transport (%) (2h) [4]: 9.9±0.6%
Papp (x 10^6) cm/s ([4]; 2 h, Ringer-HEPES pH 7.4, 200 µM peptides): 6.1±0.4 (x 10^6) cm/s

Quantum dot-PEG-NH-V1-Dap-Lys-Ala-Pro-Glu-Thr-Ala-Leu-Asp-NH2 [Example 24]
Transport (%) (2h) [4]: 0.23±0.09%

O=C(O)CCCC[C@@H]1SC[C@@H]2NC(=O)N[C@@H]21 [biotin]
detection of the cargo alone in the acceptor compartments by MALDI-TOF MS [2]: not detected

CC(C)C[C@@H]1NC(=O)[C@H](C)NC(=O)[C@H]([C@@H](C)O)NC(=O)[C@H](CCC(=O)O)NC(=O)[C@@H]2CCCN2C(=O)[C@H](C)NC(=O)[C@H](CCCCN)NC(=O)[C@@H](NC(=O)[C@@H](N)Cc2ccc(O)c(O)c2)CSSC[C@@H](C(N)=O)NC1=O [Example 17, L-Dopa-Cys-Lys-Ala-Pro-Glu-Thr-Ala-Leu-Cys-NH2] (H-[Dopa]CKAPETALC-NH2; disulfide 2-10)
Papp at 2 h [1]: 2.4 ×10⁻⁶ cm/s
Transport (%) (2h) [2]: 2.9%

5(6)-carboxyfluorescein
detection of the cargo alone in the acceptor compartments by MALDI-TOF MS [2]: not detected

CC[C@H](C)[C@H](NC(=O)[C@H](CCC(=O)O)NC(=O)[C@@H](NC(=O)[C@H](CCC(N)=O)NC(=O)[C@H](CCCCN)NC(=O)[C@@H]1CC(=O)NC[C@H](N)C(=O)N[C@@H](CCCCN)C(=O)N[C@@H](C)C(=O)N2CCC[C@H]2C(=O)N[C@@H](CCC(=O)O)C(=O)N[C@@H]([C@@H](C)O)C(=O)N[C@@H](C)C(=O)N[C@@H](CC(C)C)C(=O)N1)[C@@H](C)CC)C(=O)N[C@@H](CCCCN)C(=O)N[C@@H](CCCCN)C(=O)N[C@@H](Cc1ccccc1)C(=O)N[C@@H](CCCCN)C(N)=O [Example 27, H-Dap-Lys-Ala-Pro-Glu-Thr-Ala-Leu-Asp-Lys-Gln-Ile-Glu-Ile-Lys-Lys-Phe-Lys-NH2] (H-[Dap]KAPETALDKQIEIKKFK-NH2; lactam 1-9)
Papp at 2 h [5]: 1.9 ± 0.1 ×10⁻⁶ cm/s
Transport (%) (2h) [4]: 3.1±0.2%

H-LPFFD-NH2 [H-Leu-Pro-Phe-Phe-Asp-NH2, reference compound]
detection of the cargo alone in the acceptor compartments by MALDI-TOF MS [2]: not detected

CCN(CC)c1ccc2c(-c3ccc(S(=O)(=O)O)cc3S(=O)(=O)[O-])c3ccc(=[N+](CC)CC)cc-3oc2c1 [sulforhodamine b]
detection of the cargo alone in the acceptor compartments by MALDI-TOF MS [2]: not detected

N[C@@H](Cc1ccc(O)c(O)c1)C(=O)O [L-dopa]
detection of the cargo alone in the acceptor compartments by MALDI-TOF MS [2]: not detected

CC(C)C[C@@H]1NC(=O)[C@H](C)NC(=O)[C@H]([C@@H](C)O)NC(=O)[C@H](CCC(=O)O)NC(=O)[C@@H]2CCCN2C(=O)[C@H](C)NC(=O)[C@H](CCCCN)NC(=O)[C@@H]2CSSC[C@@H](C(=O)N[C@@H](Cc3c[nH]cn3)C(N)=O)NC(=O)[C@H](C)NC(=O)[C@H](C)NC(=O)[C@H](C)NC(=O)[C@H](CSSC[C@H](NC(=O)[C@@H](N)Cc3ccc(O)c(O)c3)C(=O)N[C@@H](CC(N)=O)C(=O)N2)NC1=O [Example 16, L-Dopa-Cys-Asn-Cys-Lys-Ala-Pro-Glu-Thr-Ala-Leu-Cys-Ala-Ala-Ala-Cys-His-NH2] (H-[Dopa]CNCKAPETALCAAACH-NH2; disulfide 2-12, 4-16)
Papp at 2 h [1]: 2.6 ± 0.3 ×10⁻⁶ cm/s
Transport (%) (2h) [2]: 3.1±0.3%

CC(C)C[C@@H]1NC(=O)[C@H](C)NC(=O)[C@H]([C@@H](C)O)NC(=O)[C@H](CCC(=O)O)NC(=O)[C@@H]2CCCN2C(=O)[C@H](C)NC(=O)[C@H](CCCCN)NC(=O)[C@@H]2CSSC[C@@H](C(=O)N[C@@H](Cc3c[nH]cn3)C(N)=O)NC(=O)[C@H](C)NC(=O)[C@H](C)NC(=O)[C@H](C)NC(=O)[C@H](CSSC[C@H](NC(=O)CNC(=O)[C@H](CC(=O)O)NC(=O)[C@H](Cc3ccccc3)NC(=O)[C@H](Cc3ccccc3)NC(=O)[C@@H]3CCCN3C(=O)[C@@H](N)CC(C)C)C(=O)N[C@@H](CC(N)=O)C(=O)N2)NC1=O [Example 19] (H-LPFFDGCNCKAPETALCAAACH-NH2; disulfide 7-17, 9-21)
Papp at 2 h [1]: 1.5 ± 0.4 ×10⁻⁶ cm/s
Transport (%) (2h) [2]: 1.8±0.5%

Lysozyme-V3-Cys-Asn-Cys-Lys-Ala-Pro-Glu-Thr-Ala-Leu-Cys-Ala-Ala-Ala-Cys-His-NH2 [Example 21]
Transport (%) (2h) [2]: 0.08±0.03%
Papp (x 10^6) cm/s [2]: 0.07±0.03 (x 10^6) cm/s

Gold nanoparticle-Cys-Dap-Lys-Ala-Pro-Glu-Thr-Ala-Leu-Asp-NH2 [Example 25]
Transport (%) (2h) [4]: 0.034%

H-KAPETAL-NH2 [Example 5, H-Lys-Ala-Pro-Glu-Thr-Ala-Leu-NH2]
Papp at 2 h [1]: 2 ± 0.6 ×10⁻⁶ cm/s
Transport (%) (2h) [2]: 2.3±0.8%
half-life at 400 µM [3]: ≤ 8 min

Source: EP3016671B1, “ACTIVELY T[…] PROTEASE-RESISTANT PEPTIDES AS BBB SHUTTLES AND SHUTTLE-CARGO CONSTRUCTS” (Universitat de Barcelona, priority 2013, dated 2015)
